Results: patent US20100151003A1 (Janssen / Centocor, published 2010)
Read-outs that look alike come from different tables or passages of the source. Bridges are numbered along the chain shown (N, C = ends). Where no end group is shown, it is not given here.

Assays:
[1] = molecular target: T1, sEGFR-MMB (dimeric soluble EGFR ectodomain mimetibody) (human); test: phage ELISA on coated sEGFR-MMB; second bar with EGF 10 ug/ml as competitor
T1 construct: also called sEGFR mimetibody; sEGFR-Fc

b-sEGFR-strep = molecular target: T2, b-sEGFR-strep (human, UniProt P00533, biotinylated, sites not given); test: phage ELISA, biotinylated receptor captured on streptavidin
T2 construct: soluble ectodomain, monomeric, strep II tag; captured on streptavidin-coated wells; also called strepII-tagged sEGFR; strep II-tagged sEGFR purchased from Research Diagnostics

biotinylated sEGFR-His6 = molecular target: T3, biotinylated sEGFR-His6 (human, UniProt P00533 25-645, biotinylated (sites not given)); test: as above
T3 construct: Captured on streptavidin-coated wells in the ELISA; also called b-sEGFR-His; b-sEGFR-His6

biotinylated sEGFR-MMB = molecular target: T4, biotinylated sEGFR-MMB (human, biotinylated with sulfo-NHS-LC-biotin (sites not given)); test: as above
T4 construct: Captured on streptavidin-coated wells in the ELISA; also called b-sEGFR-MMB; b-sEGFR MMB
T4 sequence (chain, as listed by the source limits assumed): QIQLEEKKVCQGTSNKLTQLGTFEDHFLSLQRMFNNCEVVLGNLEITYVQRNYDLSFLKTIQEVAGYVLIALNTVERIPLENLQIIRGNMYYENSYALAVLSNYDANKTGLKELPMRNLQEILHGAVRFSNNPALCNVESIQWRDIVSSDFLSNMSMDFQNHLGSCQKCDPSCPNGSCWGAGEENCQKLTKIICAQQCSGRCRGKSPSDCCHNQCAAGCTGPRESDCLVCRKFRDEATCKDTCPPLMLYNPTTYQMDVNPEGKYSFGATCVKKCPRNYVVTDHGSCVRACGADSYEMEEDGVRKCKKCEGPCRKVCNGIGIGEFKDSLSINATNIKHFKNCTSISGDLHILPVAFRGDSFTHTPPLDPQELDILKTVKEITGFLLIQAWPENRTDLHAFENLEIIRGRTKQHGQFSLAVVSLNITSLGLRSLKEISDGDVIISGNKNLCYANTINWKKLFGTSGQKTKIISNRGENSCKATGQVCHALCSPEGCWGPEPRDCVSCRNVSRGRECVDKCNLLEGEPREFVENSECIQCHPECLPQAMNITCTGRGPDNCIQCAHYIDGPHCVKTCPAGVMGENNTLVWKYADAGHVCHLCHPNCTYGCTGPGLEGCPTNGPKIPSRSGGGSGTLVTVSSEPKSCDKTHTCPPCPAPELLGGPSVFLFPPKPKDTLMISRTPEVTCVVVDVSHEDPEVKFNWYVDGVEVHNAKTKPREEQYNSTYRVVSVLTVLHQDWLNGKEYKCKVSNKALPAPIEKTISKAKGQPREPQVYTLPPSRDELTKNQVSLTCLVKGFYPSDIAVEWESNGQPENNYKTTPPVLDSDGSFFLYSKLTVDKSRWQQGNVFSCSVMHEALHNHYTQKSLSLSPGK

[2] = molecular target: T1, sEGFR-MMB (dimeric soluble EGFR …); test: phage ELISA on coated sEGFR-MMB, chemiluminescence; background typically <200 units
[3] = molecular target: T5, Human extracellular EGFR-His6 (sEGFR-His6) (human, UniProt P00533 25-645); test: phage ELISA, coated sEGFR-His6
T5 construct: Monomeric, expressed in HEK293E, glycosylated; also called sEGFR-6×His; monomeric sEGFR

[4] = molecular target: T1, sEGFR-MMB (dimeric soluble EGFR …); test: phage ELISA, coated sEGFR-MMB
Control-MMB (CNTO 360) = molecular target: T6, Control-MMB (CNTO 360) (Homo sapiens (Human), UniProt P0DOX5 111-449 = IgG part); test: phage ELISA on coated Control-MMB [A]
T6 construct: Described as human IgG1 heavy chain dimer absent the variable and most of the CH1 domains; also called blank mimetibody scaffold protein

Streptavidin = molecular target: T7, Streptavidin; test: phage ELISA on streptavidin alone [C]
T7 construct: also called Streptavidin alone; SA

[5] = molecular target: T1, sEGFR-MMB (dimeric soluble EGFR …); test: phage ELISA on coated sEGFR-MMB, chemiluminescence; background typically <200 units; remark: listed apart in the source

T1 sequence (chain, as listed by the source limits assumed): as above

B1: phage P145 (pIII CNL5) (peptide)
chain: AGVLCHRYYHPICYTGG
notes: Tested as whole phage displaying the peptide on pIII; also called PP145; PHPEP145; not shown: M13 phage coat protein pIII, mature (TVESC...)
- binding result [1]: binds
- binding result (b-sEGFR-strep): binds
- binding result (biotinylated sEGFR-His6): binds
- binding result (biotinylated sEGFR-MMB): binds

B2: S20 library phage hit SEQ ID NO: 47 (peptide)
chain: GGGSVCVGTAFPGWMVCGP
notes: Tested as whole phage, pIX phagemid display
- ELISA signal [2]: 4770 units

B3: S20 library phage hit SEQ ID NO: 44 (peptide)
chain: GGGWMCFLEGYGASLMCQC
notes: as for B2
- ELISA signal [2]: 4800 units

B4: phage P194 (pIII CNL1-11) (peptide)
chain: AGSECFPLAPDWLSCILGG
notes: Tested as whole phage displaying the peptide on pIII; also called PHPEP194; not shown: M13 phage coat protein pIII, mature (TVESC...)
- binding result [3]: binds
- binding result [4]: binds

B5: S20 library phage hit SEQ ID NO: 49 (peptide)
chain: GGGLLCATTSFRDWFVCFT
notes: as for B2
- ELISA signal [2]: 4510 units

B6: phage P176 (pIX S20) (peptide)
chain: GGGKTCVSTTFDLWFVCFA
modifications: disulfide 6-17; also: displayed on whole phage via pIX
notes: Tested as whole phage, pIX phagemid display; also called PP176
- binding result (Control-MMB (CNTO 360)): no binding
- ELISA signal [2]: 37400 units
- binding result (Streptavidin): no binding

B7: S20 library phage hit SEQ ID NO: 43 (peptide)
chain: GGGPTCDSATRRVLTICAD
notes: as for B2
- ELISA signal [2]: 5420 units

B8: phage P146 (pIII CNL5) (peptide)
chain: AGTLCRSFFHPLCYAGG
notes: Tested as whole phage displaying the peptide on pIII; also called PP146; PHPEP146; not shown: M13 phage coat protein pIII, mature (TVESC...)
- binding result [1]: binds
- binding result (b-sEGFR-strep): binds
- binding result (biotinylated sEGFR-His6): binds
- binding result (biotinylated sEGFR-MMB): binds

B9: phage P177 (pIX S16) (peptide)
peptide: GGGDACTMVFLWCSLGGGSGGSGG
modifications: disulfide 6-13
notes: Tested as whole phage, pIX phagemid display; also called PP177; not shown: M13 coat protein pIX (display carrier at the C end)
- ELISA signal [5]: 8660 units

B10: phage P143 (pIII CNL5) (peptide)
chain: AGVLCSNFYHPLCHSGG
notes: Tested as whole phage displaying the peptide on pIII; also called PP143; not shown: M13 phage coat protein pIII, mature (TVESC...)
- binding result [1]: binds
- binding result (b-sEGFR-strep): binds
- binding result (biotinylated sEGFR-His6): binds
- binding result (biotinylated sEGFR-MMB): binds

B11: phage P178 (pIX S17) (peptide)
peptide: GGGRWCYFWWITICELGGGSGGSGG
modifications: disulfide 6-14
notes: Tested as whole phage, pIX phagemid display; also called PP178; not shown: M13 coat protein pIX (display carrier at the C end)
- ELISA signal [5]: 7910 units

B12: S20 library phage hit SEQ ID NO: 46 (peptide)
chain: GGGYICTPSDIDSWYICYL
notes: as for B2
- ELISA signal [2]: 6620 units

B13: phage P193 (pIII CNL1-11) (peptide)
chain: AGSYYWGYTVDIRRGG
notes: Tested as whole phage displaying the peptide on pIII; also called PHPEP193; not shown: M13 phage coat protein pIII, mature (TVESC...)
- binding result [4]: binds

B14: S20 library phage hit SEQ ID NO: 45 (peptide)
chain: GGGDSCCSFLTDGTVVCSL
notes: as for B2
- ELISA signal [2]: 9540 units
